The text below walks through data of the supplement of paper PMC9170038.

In this series the test system is MS2 coat protein. Put plainly: apparent KD of MS2 coat protein; designed switch direction (-1 OFF switch, 1 ON switch): 1; higher = weaker reporter binding. Summed up: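 Three titration conditions were used: no input, 200 uM small-molecule ligand, and an oligonucleotide input. In each, SNAP-549-labelled MS2 coat protein was raised from 0.7 or 1.5 nM, doubling, to 3 µM over designed RNA switches transcribed on Illumina chips by stalled E. coli RNA polymerase. Curve fits of normalised cluster fluorescence gave values whose per-design median over clusters is the apparent KD.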

Setting [1] is: input ligand: microRNA oligo, concentration not stated.
Where [2] appears, read: Eterna round: R95, input ligand: microRNA oligo, concentration not stated.
Setting [3] is: Eterna round: R95, input ligand: FMN 200 uM.
The mark [4] stands for this setting: Eterna round: R95, input ligand: none.

Consider “GCUCGACGUAUUGUCUACAUGAGGAUCACCCAUGUAGGUGCGAAGGAUAUCUACGUGUUUCAUGUAGAGAAGGUCGUGUCGAGC [SameState NG3 #93] (Eterna round: R96, puzzle: Same State NG 3)”, for which the “apparent KD of MS2 coat protein” value (input ligand: FMN 200 uM) was 36.3 nM, the “apparent KD of MS2 coat protein” value under setting [1] amounted to 35.1 nM and the “apparent KD of MS2 coat protein” value (input ligand: none) worked out at 46.4 nM.

In the case of “GCUCGACGUUCGGCCUACAUGAGGAUCACCCAUGUGACUGGGCAGGAUAUCUAAAUGCAGAAUGUAGAGAAGGGCCCGUCGAGC [SameState NG3 #51] (Eterna round: R96, puzzle: Same State NG 3)”, the “apparent KD of MS2 coat protein” value by setting is: (input ligand: FMN 200 uM) 168 nM; under setting [1], 43.4 nM; (input ligand: none) 190 nM.

As for “GCUCGAUGAGCGUUCUACAUGAGGAUCACCCAUGUUCGUGGGCAGGAUAUUUACAUGCAGAGUGUAGAGAAGGGCCCAUCGAGC [SameState NG3 #66] (Eterna round: R96, puzzle: Same State NG 3)”, the “apparent KD of MS2 coat protein” value (input ligand: FMN 200 uM) is 205 nM, the “apparent KD of MS2 coat protein” value under setting [1] was found to be 117 nM and the “apparent KD of MS2 coat protein” value (input ligand: none) is 838 nM.

Take “GCUCGAUGAUAGGCCUACAUGAGGAUCACCCAUGUAACUGGGCAGGAUAUCUAAAUGCAGAAUGUAGAGAAGGGCCCGUCGAGC [SameState NG3 #53] (Eterna round: R96, puzzle: Same State NG 3)”: the “apparent KD of MS2 coat protein” value reads like this: (input ligand: FMN 200 uM) 220 nM; under setting [1], 86.8 nM; (input ligand: none) 230 nM.

Turning to “GCUCGGCUGAUGGCCCACAUGAGGAUCACCCAUGUGACUGGGCAGGAUAUCUAGAUUCAGGAUGUAGAGAAGGGCCUGCCGAGC [SameState NG3 #40] (Eterna round: R96, puzzle: Same State NG 3)”, the “apparent KD of MS2 coat protein” value runs as follows: (input ligand: FMN 200 uM) 331 nM; under setting [1], 77.3 nM; (input ligand: none) 188 nM.

For “GCUCUACAUGAGGAUCACCCAUGUCCAUCCGCACGAGGAUAUGCAUGGGCGAAAGCUGGUGCAGAAGGCGUGGGAC [Tr3Pin] (puzzle: Same State 1)”, under setting [2], the “apparent KD of MS2 coat protein” value was determined as 409 nM.

“GCUGGAAACUACAUGAGGAUCACCCAUGUUCCGGAAACGGCACAGGAUAUCUGUCCGAAAAGGUCAGAGAAGGGUGAAACCAGC [Fiskers NG3ss - 84] (Eterna round: R96, puzzle: Same State NG 3)”: the “apparent KD of MS2 coat protein” value runs as follows: (input ligand: FMN 200 uM) 106 nM; under setting [1], 90.3 nM; (input ligand: none) 1020 nM.

Regarding “GCUGGCAUGCAAGGAUAUCCUUCCGAGUAGGAAGGAGAAGGUGCUUGUGGGACAUGAGGAUCACCCAUGUAUGUUGGCCACGAC [Inrala] (Eterna round: R96, puzzle: Same State NG 1)”, the “apparent KD of MS2 coat protein” value under setting [1] stood at 82.1 nM.

For “GCUUGCCGCACAGGAUAUGGGUGCCUGUACAUGAGGAUCACCCAUGUUAAGGGACGGAUUACGAACCAGAAGGGUGAGGCGGGC [Lereatle] (Eterna round: R96, puzzle: Same State NG 2)”, the “apparent KD of MS2 coat protein” value is 59.4 nM (input ligand: FMN 200 uM), 119 nM under setting [1] and 473 nM (input ligand: none).

Consider “GGAAUAUGAUGUUACAUGAGGAUCACCCAUGUAGUAAUAACUAAGGAUAUCUGAAAAGGAGGAGAAGAGAAGGUAGGAUCAUAA [AK SSNG3-V2-10.1] (Eterna round: R96, puzzle: Same State NG 3)”, for which the “apparent KD of MS2 coat protein” value was 13.3 nM (input ligand: FMN 200 uM), 22.5 nM under setting [1] and 33.3 nM (input ligand: none).

As for “GGAAUAUGAUGUUACAUGAGGAUCACCCAUGUAGUGAUAACUAAGGAUAUUUGAAAGGAAGGAGAAGAGAAGGUAGGAUCAUAA [AK SSNG3-V2-12] (Eterna round: R96, puzzle: Same State NG 3)”, the “apparent KD of MS2 coat protein” value turned out to be 50.9 nM (input ligand: FMN 200 uM), 34.3 nM under setting [1] and 55.4 nM (input ligand: none).

For “GGAAUAUUUACAGGAUAUCAUUUGUAAAUUCGAUGAGAAGGGUAGAUGUCUUACACGACUUGUUACAUGAGGAUCACCCAUGUU [SameState NG1 #8] (Eterna round: R96, puzzle: Same State NG 1)”, the “apparent KD of MS2 coat protein” value under setting [1] amounted to 34 nM.

As for “GGACCCUUCGGAGGAUAUUCUCAGUAACAGUAAGAAGAAGGCCGUAAGUCAUACGCGCGUUACAUGAGGAUCACCCAUGUGUGG [Eternabot solution 47] (Eterna round: R96, puzzle: Same State NG 1)”, the “apparent KD of MS2 coat protein” value is, setting by setting: (input ligand: FMN 200 uM) 149 nM; under setting [1], 150 nM; (input ligand: none) 333 nM.

For the sequence “GGACGUCAUCUCACUGAUUAACAUGAGGAUCACCCAUGUUCACAGGAUAUGAGUCCGAUUAGGACUCAGAAGGGUGAGACGUCC [Fiskers NG3ss - 47] (Eterna round: R96, puzzle: Same State NG 3)”, the “apparent KD of MS2 coat protein” value is, setting by setting: (input ligand: FMN 200 uM) 19.3 nM; under setting [1], 16.8 nM; (input ligand: none) 19.3 nM.

As to “GGAGAACAUGAGGAUCACCCAUGUAAGAGAGUUGUAGGAUAUGUGAGGAGCAGAGGAUGAACAGAAGGACAUGGAG [JR_SS!_Sub070] (puzzle: Same State 1)”, the “apparent KD of MS2 coat protein” value runs as follows: under setting [3], 42 nM; under setting [2], 49.3 nM; under setting [4], 56.4 nM.

With “GGAGAGAGAGCACAGGAUAUGCGAGGAGAGACAUGAGGAUCACCCAUGUAAGAGAGAGAGGAGAGGUAGAAGGGUGAGAGAGAGG [Altered State 2-21 - Jieux - Same State 2] (puzzle: Same State 2)”, the “apparent KD of MS2 coat protein” value under setting [3] stood at 150 nM, the “apparent KD of MS2 coat protein” value under setting [2] came out at 62.7 nM and the “apparent KD of MS2 coat protein” value under setting [4] stood at 92.3 nM.

As to “GGAGAGAGAGCGGAGGAUAUUCAAGGAGAGACAUGAGGAUCACCCAUGUAAGAGAGAGAGGAGAGGAAGAAGGCUGAGAGAGAGG [Altered State 2-10 - Jieux - Same State 2] (puzzle: Same State 2)”, the “apparent KD of MS2 coat protein” value under setting [3] came to 32.1 nM, the “apparent KD of MS2 coat protein” value under setting [2] was 26.9 nM and the “apparent KD of MS2 coat protein” value under setting [4] was found to be 42.8 nM.

As to “GGAGCCAAGGCAGGAUAUUCAUUUAAAUAAACAUGAGGAUCACCCAUGUAGGCCAGAAGGCCUUGGGAGAAGGGCCAUGGCUCG [Xeonanis - 13 mod7] (Eterna round: R96, puzzle: Same State NG 2)”, the “apparent KD of MS2 coat protein” value runs as follows: (input ligand: FMN 200 uM) 17.7 nM; under setting [1], 72.8 nM; (input ligand: none) 88.1 nM.

Regarding “GGAGCCGGCACCGAGGAUAUUCAUAUUAAAACAUGAGGAUCACCCAUGUAGAGCAGAAGCUCUUGGGAGAAGGCGGAUCGGCUCG [Xeonanis - 27] (puzzle: Same State 2)”, the “apparent KD of MS2 coat protein” value is 28.4 nM under setting [3], 306 nM under setting [2] and 549 nM under setting [4].

For “GGAGCCGGCACUGAGGAUAUUCAUAAUAAAACAUGAGGAUCACCCAUGUAGGCCAGAAGGCCUUGGGAGAAGGCAGGUCGGCUCA [Mat - Same State 2 - Mod of UCT - D66] (puzzle: Same State 2)”, the “apparent KD of MS2 coat protein” value reads like this: under setting [3], 18.3 nM; under setting [2], 153 nM; under setting [4], 217 nM.

As for “GGAGCCGGCACUGAGGAUAUUCAUAUUAAAACAUGAGGAUCACCCAUGUAGGCCAGAAGGCCUUGGGAGAAGGCGGGUCGGCCCG [Bibimoar - 3] (Eterna round: R96, puzzle: Same State 2)”, the “apparent KD of MS2 coat protein” value (input ligand: FMN 200 uM) came out at 22.1 nM, the “apparent KD of MS2 coat protein” value under setting [1] is 222 nM and the “apparent KD of MS2 coat protein” value (input ligand: none) is 258 nM.

For the sequence “GGAGCCGGCACUGAGGAUAUUCAUAUUAAAACAUGAGGAUCACCCAUGUAGGCCAGAAGGCCUUGGGAGAAGGCGGGUCGGCCCG [Bibimoar - 3] (puzzle: Same State 2)”, the “apparent KD of MS2 coat protein” value by setting is: under setting [3], 27.2 nM; under setting [2], 360 nM; under setting [4], 647 nM.

Regarding “GGAGCCGGCCUAGGAUAUUUCAUAAUAAAACAUGAGGAUCACCCAUGUAGGCCAGAAGGCCUUGGGAAGAAGGAGGUCGGCUCC [Loop Effect - U26] (Eterna round: R96, puzzle: Same State NG 2)”, the “apparent KD of MS2 coat protein” value is, setting by setting: (input ligand: FMN 200 uM) 12.1 nM; under setting [1], 30.2 nM; (input ligand: none) 47 nM.

Take “GGAGCUGUUAUAGGAUAUCCCGCUCAUUACGCGGGAGAAGGGUGACGCUCACAUGAGGAUCACCCAUGUGGCGUUCCAAAAUAA [Reesti] (Eterna round: R96, puzzle: Same State NG 1)”: the “apparent KD of MS2 coat protein” value runs as follows: (input ligand: FMN 200 uM) 8.43 nM; under setting [1], 7.1 nM; (input ligand: none) 12.6 nM.

As for “GGAGGACAUGAGGAUCACCCAUGUGGAUGAUCGCUAGGAUAUGCGUGCGGGAGGAGUGGUGCAGAAGGAGUGGGAU [JR_SS1_Sub049] (puzzle: Same State 1)”, the “apparent KD of MS2 coat protein” value under setting [2] was 188 nM.

On to “GGAGGACAUGAGGAUCACCCAUGUGGAUGGGCGCUAGGAUAUGCGAGAGGGUGGAGAGAAGCAGAAGGAGUGGAUA [JR_SS1_Sub038] (puzzle: Same State 1)”, for which the “apparent KD of MS2 coat protein” value was 76.7 nM under setting [3], 62.9 nM under setting [2] and 75 nM under setting [4].

On to “GGAGGGAGGGCGCAGGAUAUCGAUAAUGACACAUGAGGAUCACCCAUGUUUGGUAUUAGAAGGAACGAGAAGGGUGAGAGGAGGG [red_knee_arm] (puzzle: Same State 2)”, for which the “apparent KD of MS2 coat protein” value reads like this: under setting [3], 36.1 nM; under setting [2], 35.1 nM; under setting [4], 53.2 nM.

Consider “GGAUCGGAGGCAGGAUAUGGGCUCAGAACAUGAGGAUCACCCAUGUAAAACGGCGCAAUGCGCCACCAGAAGGGCCUCCGACCG [Inmadibi] (Eterna round: R96, puzzle: Same State NG 2)”, for which the “apparent KD of MS2 coat protein” value was determined as 8.62 nM (input ligand: FMN 200 uM), 17.8 nM under setting [1] and 44.7 nM (input ligand: none).
